This is an account of results in patent US20240309109A1.

For this experiment, the target named is human CD38 on cells (human) (UniProt P28907). Put plainly: FACS Scatchard, IgG1 on Raji cells.

In turn, Chimeric OKT10 (antibody) had a dissociation constant Kd of 8.28 nM.
